Laboratory results reported in patent US20160194639.

Target: α2-antiplasmin

B1: endogenous plasmin of mouse brain slices (protein)
chain: VYLSECKTGIGNGYRGTMSRTKSGVACQKWGATFPHVPNYSPSTHPNEGLEENYCRNPDNDEQGPWCYTTDPDKRYDYCNIPECEEECMYCSGEKYEGKISKTMSGLDCQAWDSQSPHAHGYIPAKFPSKNLKMNYCRNPDGEPRPWCFTTDPTKRWEYCDIPRCTTPPPPPSPTYQCLKGRGENYRGTVSVTVSGKTCQRWSEQTPHRHNRTPENFPCKNLEENYCRNPDGETAPWCYTTDSQLRWEYCEIPSCESSASPDQSDSSVPPEEQTPVVQECYQSDGQSYRGTSSTTITGKKCQSWAAMFPHRHSKTPENFPDAGLEMNYCRNPDGDKGPWCYTTDPSVRWEYCNLKRCSETGGSVVELPTVSQEPSGPSDSETDCMYGNGKDYRGKTAVTAAGTPCQGWAAQEPHRHSIFTPQTNPRAGLEKNYCRNPDGDVNGPWCYTTNPRKLYDYCDIPLCASASSFECGKPQVEPKKCPGRVVGGCVANPHSWPWQISLRTRFTGQHFCGGTLIAPEWVLTAAHCLEKSSRPEFYKVILGAHEEYIRGLDVQEISVAKLILEPNNRDIALLKLSRPATITDKVIPACLPSPNYMVADRTICYITGWGETQGTFGAGRLKEAQLPVIENKVCNRVEYLNNRVKSTELCAGQLAGGVDSCQGDSGGPLVCFEKDKYILQGVTSWGLGCARPNKPGVYVRVSRFVDWIEREMRNN
For B1, the “plasmin activity in brain slices (D-VLK chromogenic plasmin substrate assay)” value was “addition of the plasmin inhibitor α2-antiplasmin (Bajou et al., 2008) inhibited this activity”.
